# From patent US20210155689A1 (SHANGHAI PHARMAEXPLORER, published 2021)
# T1: human LAG-3 (full length, on the cell surface) (human, UniProt P18627 23-525)
# T1 construct: Full-length human LAG-3 expressed on cells; also called HEK293-hLAG-3; HEK293 cells transfected with LAG-3 gene
# T1 sequence: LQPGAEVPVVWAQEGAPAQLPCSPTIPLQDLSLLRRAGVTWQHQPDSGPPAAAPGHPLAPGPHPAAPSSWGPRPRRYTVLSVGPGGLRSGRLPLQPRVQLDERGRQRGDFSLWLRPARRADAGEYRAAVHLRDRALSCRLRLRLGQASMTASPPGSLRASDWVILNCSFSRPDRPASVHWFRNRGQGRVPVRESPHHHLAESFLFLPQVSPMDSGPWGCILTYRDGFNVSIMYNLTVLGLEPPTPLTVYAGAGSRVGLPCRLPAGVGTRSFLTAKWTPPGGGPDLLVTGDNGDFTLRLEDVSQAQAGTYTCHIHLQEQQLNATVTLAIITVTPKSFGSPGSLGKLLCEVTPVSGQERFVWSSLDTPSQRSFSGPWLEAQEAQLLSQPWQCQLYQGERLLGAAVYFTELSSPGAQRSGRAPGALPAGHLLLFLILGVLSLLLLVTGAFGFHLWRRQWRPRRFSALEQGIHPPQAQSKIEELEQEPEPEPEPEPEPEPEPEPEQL
# T2: mouse LAG-3 protein with hFc tag (mLAG-3-hFc protein) (mouse; human, UniProt Q61790 24-442)
# T2 construct: Made in HEK293 cells; also called mouse LAG-3 extracellular domain protein; not shown: human IgG Fc fragment (hFc) of the pCpC vector
# T2 sequence: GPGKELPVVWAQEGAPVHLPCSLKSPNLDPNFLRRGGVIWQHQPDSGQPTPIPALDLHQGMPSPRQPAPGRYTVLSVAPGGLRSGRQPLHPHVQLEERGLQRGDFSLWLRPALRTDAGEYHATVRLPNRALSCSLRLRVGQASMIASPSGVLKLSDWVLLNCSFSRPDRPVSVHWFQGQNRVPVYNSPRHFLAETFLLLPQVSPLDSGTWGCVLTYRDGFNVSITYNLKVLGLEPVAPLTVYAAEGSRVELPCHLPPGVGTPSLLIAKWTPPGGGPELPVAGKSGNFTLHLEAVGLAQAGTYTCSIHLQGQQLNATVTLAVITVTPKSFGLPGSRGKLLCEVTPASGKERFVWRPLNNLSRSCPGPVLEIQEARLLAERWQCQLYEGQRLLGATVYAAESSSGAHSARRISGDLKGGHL
# Legend:
# [1] = biological target: T1, human LAG-3 (full length, on the cell …); test: FACS, HEK293-hLAG-3; 200.000 nM
# Source text: The pIRES plasmid with the monkey-derived full-length gene was transfected into the HEK293 cell line to construct a HEK293 stable cell line containing monkey LAG-3 (herein referred to as HEK293-cLAG-3 stable cell line). The HEK293-hLAG-3 stable cell line and HEK293-cLAG-3 stable cell line were expanded in a T-75 cell culture flask to a 90% confluence. The medium was aspirated, and the cells were washed with HBSS (Hanks' Balanced Salt Solution) 1-2 times, then treated with a enzyme-free cell dissociation fluid (Versene solution: Life technology) and the cells were collected. The cells were washed with HBSS buffer for 1-2 times. After counted, the cells were diluted with HBSS to 1-2×10⁶ cells per ml, added with 1% goat serum blocking solution, incubated on ice for 20-30 minutes, and then washed with HBSS for 2 times by centrifugation. The collected cells were suspended in the FACS buffer (HBSS+1% BSA) to 2×10⁶ cells/ml, added as 100 microliters per well to a 96-well FACS reaction plate, added with 100 microliters per well of the antibody sample to be tested, incubated on ice for 1-2 hours. The plate was washed twice with the FACS buffer by centrifugation, added with 100 microliters of fluorescent (Alexa 488)-labeled secondary antibodies per well, and incubated on ice for 0.5-1.0 hours. The plate was washed 2-3 times with FACS buffer by centrifugation, added with 100 μl fixative solution (4% Paraformaldehyde) per well to suspend the cells. 5-10 minutes later, it was washed 1-2 times with FACS buffer by centrifugation. The cells were suspended with 100 microliters of FACS buffer, FACS (FACSCalibur, BD) was used for detection and the results were analyzed.
# [2] = biological target: T1, human LAG-3 (full length, on the cell …); test: cell-based or functional assay
# [3] = biological target: T2, mouse LAG-3 protein with hFc tag …; test: ELISA, mLAG-3-hFc coated
# Experimental: The plate was sealed with plastic film and incubated overnight at 4° C. The plate was washed 2 times with the plate washing solution (PBS+0.01% Tween20) on the next day, and added with the blocking solution (PBS+0.01% Tween20+1% BSA) and blocked at room temperature for 1-2 hours. The blocking solution was poured out, and the plate was added with 50-100 μl of the antibody sample to be tested to each well, incubated at 37° C. for 1-2 hours, and washed 2-3 times with a plate washing solution (PBS+0.01% Tween20). HRP (horseradish peroxidase) labeled secondary antibody was added, and the plate was incubated at 37° C. for 1-2 hours, and washed 2-3 times with a plate washing solution (PBS+0.01% Tween20). 100 μl of TMB substrate was added to each well. After incubated at room temperature for 15-30 minutes, the plate was added with 100 μl of stop solution (1.0N HCl) to each well.
Binder,Mean fluorescence intensity [1],"mIL-2 (pg/mL), antigen-specific T lymphocyte stimulation test; antibody 0.016 ug/mL [2]","mIL-2 (pg/mL), antigen-specific T lymphocyte stimulation test; antibody 0.08 ug/mL [2]","mIL-2 (pg/mL), antigen-specific T lymphocyte stimulation test; antibody 2 ug/mL [2]","mIL-2 (pg/mL), antigen-specific T lymphocyte stimulation test; antibody 4 ug/mL (so in the source) [2]","mIL-2 (pg/mL), antigen-specific T lymphocyte stimulation test; antibody 10 ug/mL [2]",binding result [3]
"556F6B8 (mouse antibody purified from hybridoma) (antibody, V domains shown, also called mAb123-556F6B8) VH: RVQLKQSGPGLVQPSQSLSITCTVSGFSLIKYGVHWVRQSPGEGLEWLGVIWRGGITDYNAAFMSRLSITKDNSKSQVFFKMNSLQADDTAIYYCAKWDGPLAMDYWGQGTSVTVSS VL: DIVMTQSHKFLSTSVGDRVSITCKASQDVGTTVAWYQQKPGQSPKLLIYWASTRHTGVPDRFTGSGSGTDFTLTISNVQSEDLADYFCQQYSSYPYTFGGGTKLEIK",83.7 MFI,88.3 pg/mL,141 pg/mL,270 pg/mL,214 pg/mL,255 pg/mL,
"556F6B8 (LAG-3 mouse-human chimeric antibody) (antibody, V domains shown, also called 556F8B8) VH: RVQLKQSGPGLVQPSQSLSITCTVSGFSLIKYGVHWVRQSPGEGLEWLGVIWRGGITDYNAAFMSRLSITKDNSKSQVFFKMNSLQADDTAIYYCAKWDGPLAMDYWGQGTSVTVSS VL: DIVMTQSHKFLSTSVGDRVSITCKASQDVGTTVAWYQQKPGQSPKLLIYWASTRHTGVPDRFTGSGSGTDFTLTISNVQSEDLADYFCQQYSSYPYTFGGGTKLEIK",,,,,,,no binding (tested: 66.6670 nM)
"405B8H3 (mouse antibody purified from hybridoma) (antibody, V domains shown, also called mAb103-405B8H3; 405B81-13) VH: QVQLQQSGAELVRPGASVTLSCKASGYTFTDYEMHWVKQTPVHGLEWIGATDPETGNSAYNQKFKGKAIMTADKSSSTAYMELRSLTSEDSAVYYCISTGWNDWGQGTSLTVSS VL: DIKMTQSPSSMYASLGERVTITCKASQDINSYLSWFQQKPGKSPKTLIYRADRLLDGVPSRFSGSGSGQDYSLTISSLEYGDMGIYYCLQYDEFPYTFGGGTKLEIK",324 MFI,205 pg/mL,204 pg/mL,435 pg/mL,392 pg/mL,441 pg/mL,
"405B8H3 (LAG-3 mouse-human chimeric antibody) (antibody, V domains shown, also called mouse-human chimeric antibody 405B8H3) VH: QVQLQQSGAELVRPGASVTLSCKASGYTFTDYEMHWVKQTPVHGLEWIGATDPETGNSAYNQKFKGKAIMTADKSSSTAYMELRSLTSEDSAVYYCISTGWNDWGQGTSLTVSS VL: DIKMTQSPSSMYASLGERVTITCKASQDINSYLSWFQQKPGKSPKTLIYRADRLLDGVPSRFSGSGSGQDYSLTISSLEYGDMGIYYCLQYDEFPYTFGGGTKLEIK",,,,,,,no binding (tested: 66.6670 nM)
"105F1E10 (LAG-3 mouse-human chimeric antibody) (antibody, V domains shown) VH: EVQLQQSGPELVKPGASVKMSCRASGYTFTDFKMHWMKQSHGKSLEWIGYIAPNNGGTAYNQKFRGKATLTVNESSNTAYMELRSLTSEDSAVYYCVDWDDVDYWGQGTTLTVSS VL: DIKMTQSPSSMYASLGERVTITCKASQDINSYLSWFQQKSGKSPKTLIYRANRLVDGVPSRFSGSGSGQDYSLTISSLEYEDMGIYYCLQYVEFPLTFGAGTKLELK",,,,,,,no binding (tested: 66.6670 nM)
"105F1E10 (mouse antibody purified from hybridoma) (antibody, V domains shown, also called mAb009-105F1E10) VH: EVQLQQSGPELVKPGASVKMSCRASGYTFTDFKMHWMKQSHGKSLEWIGYIAPNNGGTAYNQKFRGKATLTVNESSNTAYMELRSLTSEDSAVYYCVDWDDVDYWGQGTTLTVSS VL: DIKMTQSPSSMYASLGERVTITCKASQDINSYLSWFQQKSGKSPKTLIYRANRLVDGVPSRFSGSGSGQDYSLTISSLEYEDMGIYYCLQYVEFPLTFGAGTKLELK",330 MFI,,,,,,
"409D4E10 (LAG-3 mouse-human chimeric antibody) (antibody, V domains shown) VH: QVQLQQSGAELVRPGASVTLSCKASGNTFTDYEMHWVKQTPVHGLEWIGATDPETDNTAYNQKFKGKAILTTDKSSSTAYMELRSLTSEDSAVYYCITSGWNDWGQGTSLTVSS VL: DIKMTQSPSSMYASLGERVTITCKASQDINSYLSWFQQKPGKSPKTLIYRANRLLDGVPSRFSGSGSGQDYSLTISSLEYEDMGIYYCLQYNEFPYTFGGGTKLEIK",,,,,,,no binding (tested: 66.6670 nM)
"409D4E10 (mouse antibody purified from hybridoma) (antibody, V domains shown, also called mAb112-409D4E10) VH: QVQLQQSGAELVRPGASVTLSCKASGNTFTDYEMHWVKQTPVHGLEWIGATDPETDNTAYNQKFKGKAILTTDKSSSTAYMELRSLTSEDSAVYYCITSGWNDWGQGTSLTVSS VL: DIKMTQSPSSMYASLGERVTITCKASQDINSYLSWFQQKPGKSPKTLIYRANRLLDGVPSRFSGSGSGQDYSLTISSLEYEDMGIYYCLQYNEFPYTFGGGTKLEIK",154 MFI,172 pg/mL,175 pg/mL,346 pg/mL,261 pg/mL,335 pg/mL,
"409B11E12 (LAG-3 mouse-human chimeric antibody) (antibody, V domains shown) VH: QVQLQQSGAELVRPGASVTLSCKASGYTFTDYEMHWVKQTTVHGLEWIGATDPETSYSAYNQKFKGKAILTADKSSSTAYMELRSLTSEDSAVYYCIATGWNDWGQGTSLTVSS VL: DLKMTQSPSSMYASLGERVTITCKASQDINSYLSWFQQKPGKSPKTLIYRANRLLDGVPSRFSGSGSGQDYSLTISSLEYEDMGIYYCLQYDEFPYTFGGGTKLEIK",,,,,,,no binding (tested: 66.6670 nM)
"409B11E12 (mouse antibody purified from hybridoma) (antibody, V domains shown, also called mAb104-409B11E12) VH: QVQLQQSGAELVRPGASVTLSCKASGYTFTDYEMHWVKQTTVHGLEWIGATDPETSYSAYNQKFKGKAILTADKSSSTAYMELRSLTSEDSAVYYCIATGWNDWGQGTSLTVSS VL: DLKMTQSPSSMYASLGERVTITCKASQDINSYLSWFQQKPGKSPKTLIYRANRLLDGVPSRFSGSGSGQDYSLTISSLEYEDMGIYYCLQYDEFPYTFGGGTKLEIK",144 MFI,187 pg/mL,183 pg/mL,376 pg/mL,374 pg/mL,364 pg/mL,
